In article PMC4220969, “Structural basis for the recognition of muramyltripeptide by Helicobacter pylori Csd4, a D,L-carboxypeptidase controlling the helical cell shape” (Acta Crystallographica Section D: Biological Crystallography, 2014):
Where no end group is shown, it is not given here. [ ]: non-standard residue; d: D form. The star is where a group is joined. FITC = O=C1OC2(c3ccc(O)cc3Oc3cc(O)ccc32)c2ccc(NC(=S)*)cc21

How the values were obtained:
[1] = molecular target: FITC-labelled dipeptide (FITC-L-Ala-D-Glu); experiment: fluorescence polarisation; FITC-labelled dipeptide at 9.2 nM, Csd5 titrated from 17.0 nM to 17.4 µM, 10 mM HEPES pH 7.5, 100 mM sodium chloride
Csd5 = molecular target: T1, Csd5 (Helicobacter pylori, UniProt O25843); experiment: fluorescence polarization; assay type: binding; settings: labelled compound; 9.2 nM FITC-dipeptide, 10 mM HEPES pH 7.5, 100 mM NaCl
T1 construct: gene HP_1250

[2] = molecular target: T2, Helicobacter pylori Csd4 (HP1075 in strain 26695), recombinant, residues Met22-Val438 (Helicobacter pylori strain 26695, UniProt O25708 22-438); experiment: SPR; as a1, EDTA-treated Csd4-immobilised chip retreated with running buffer containing 5 mM calcium chloride; settings: both partners purified
T2 construct: Csd4 (HP1075) from H. pylori strain 26695, residues Met22-Val438; the N-terminal 19 residues are a predicted signal peptide and are not in the construct; No cleavage of the tag is described; also called D,L-carboxypeptidase; source: E. coli Rosetta2(DE3), purified (HiTrap Chelating HP, HiTrap SP HP, Superdex 200)
T2 sequence (looked up): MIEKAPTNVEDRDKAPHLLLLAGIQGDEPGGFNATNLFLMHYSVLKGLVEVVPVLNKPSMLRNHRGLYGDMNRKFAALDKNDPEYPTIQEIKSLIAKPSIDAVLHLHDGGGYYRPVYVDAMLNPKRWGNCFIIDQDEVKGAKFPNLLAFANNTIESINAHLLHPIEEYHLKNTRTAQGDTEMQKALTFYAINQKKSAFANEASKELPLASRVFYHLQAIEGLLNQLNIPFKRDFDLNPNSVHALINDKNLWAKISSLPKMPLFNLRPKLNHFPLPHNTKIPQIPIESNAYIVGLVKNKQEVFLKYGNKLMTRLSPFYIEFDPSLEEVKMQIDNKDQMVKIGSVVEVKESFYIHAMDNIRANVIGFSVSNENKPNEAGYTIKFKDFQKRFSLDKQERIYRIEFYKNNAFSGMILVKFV

[3] = molecular target: T2, Helicobacter pylori Csd4 (HP1075 in …); experiment: SPR; Csd4 immobilised by amine coupling on a carboxymethyl dextran chip, Csd5 as analyte (0.25-2.00 µM), 10 mM HEPES pH 7.5, 100 mM sodium chloride, 25°C; BSA reference subtracted; settings: both partners purified

Work on “Helicobacter pylori Csd5 (HP1250 in strain 26695), N-terminal 40-residue-truncated construct, residues Ser41-Glu192 (from UniProt O25843 41-192) (domain or fragment)” yielded a Kd [1] of 1690 nM.

In the case of {FITC}-Ala-[dE], the Kd (Csd5) is reported as about 1690 nM.

B1: Helicobacter pylori Csd5 (HP1250 in strain 26695), N-terminal 40-residue-truncated construct, residues Ser41-Glu192 (domain or fragment, Helicobacter pylori strain 26695, UniProt O25843 41-192, looked up)
chain: SAPISPNVEKTETERQNGVLSPKQEEANATTTATEESPTKDTAPPLDTAAQKQETKQEQEKENEPKQDSVPPVQNNQKTPTTPLMGKKPLEYKVAVSGVNVRAFPSTKGKILGLLLKNKSVKVLEIQNDWAEIEFSHETKGYVFLKLLKKAE
notes: Csd5 (HP1250) from H. pylori strain 26695, residues Ser41-Glu192; lacks the predicted transmembrane region (Pro15-Val37); No cleavage of the tag is described; source: E. coli, overexpressed and purified essentially as Csd4 (gel filtration in 10 mM HEPES pH 7.5, 100 mM sodium chloride)
B1 gave a Kd [2] of about 4300 nM and a Kd [3] of about 4500 nM.
